Assay results published in patent US20110027235.

How the values were obtained:
[1] = system: ZFN 16234 (OCT4 pair 3, L) (synthetic); experiment: cell_activity; conditions: ZFN pair 3 with 16233, 2.5 ug, BG01 hESC; only 2 clones; 0% at 10 ug (1 clone); labelled pair 2 in Table 3
[2] = system: ZFN 16233 (OCT4 pair 3, R) (synthetic); experiment: cell_activity; conditions: ZFN pair 3 with 16234, 2.5 ug, BG01 hESC; only 2 clones; 0% at 10 ug (1 clone); labelled pair 2 in Table 3

Row | Sequence | activity (% targeting efficiency) [1] | activity (% targeting efficiency) [2]
1 | CCCAGGAGAGGAGCAGGCAGGGTCAGCT (double strand) [OCT4 target of 16234] | 50 | –
2 | GCCAGGTCTGGGCAGCTGCAGGTGACCA (double strand) [OCT4 target of 16233] | – | 50
